Patent US20050123549A1 (IMMUNOGEN, published 2005)

What was measured:
[1] = target: T1, Muc1 mucin carrying the CA6 sialoglycotope (human, UniProt P15941 24-1255, sialylated O-linked carbohydrate carrying the CA6 epitope; positions not stated); assay: flow cytometry on WISH cells, direct binding
T1 construct: whole, on cells; Target of DS6 on CA6-positive human cell lines (flow cytometry) and in their lysates (dot blots, immunoprecipitation); also called CA6 antigen; DS6 antigen

[2] = target: T1, Muc1 mucin carrying the CA6 …; assay: competition flow cytometry on WISH cells; competitor 2 nM biotin-muDS6, streptavidin-DTAF
Procedure: (§1) To confirm that the huDS6 versions retains the affinity of muDS6, competitive binding experiments were conducted. […] In some cases, the experimentally measured apparent Kd can vary simply because of the secondary reagent used to indirectly detect binding.

[3] = target: T1, Muc1 mucin carrying the CA6 …; assay: cell-based or functional assay
[4] = target: T1, Muc1 mucin carrying the CA6 …; assay: flow cytometry on Caov-3 cells
[5] = target: T1, Muc1 mucin carrying the CA6 …; assay: flow cytometry on WISH cells, detected with streptavidin-DTAF
Procedure: as §1

[6] = target: T1, Muc1 mucin carrying the CA6 …; assay: flow cytometry on WISH cells, detected with goat anti-mouse-FITC
[7] = target: T1, Muc1 mucin carrying the CA6 …; assay: flow cytometry on HeLa cells

B1: humanized DS6 antibody version 1.0 (antibody, human IgG1, V domains shown)
VH: QAQLQVSGAEVVKPGASVKMSCKASGYTFTSYNMHWVKQTPGQGLEWIGYIYPGNGATNYNQKFQGKATLTADTSSSTAYMQISSLTSEDSAVYFCARGDSVPFAYWGQGTLVTVSA
VL: EIVLTQSPATMSASPGERVTITCSAHSSVSFMHWFQQKPGTSPKLWIYSTSSLASGVPARFGGSGSGTSYSLTISSMEAEDAATYYCQQRSSFPLTFGAGTKLELKR
notes: also called huDS6 v1.0; v1.0
Kd [1]: 3.71 nM
EC50 [2]: 37.1 nM

B2: DS6 antibody-DM1 conjugate (antibody, V domains shown)
VH: QAYLQQSGAELVRSGASVKMSCKASGYTFTSYNMHWVKQTPGQGLEWIGYIYPGNGATNYNQKFKGKATLTADPSSSTAYMQISSLTSEDSAVYFCARGDSVPFAYWGQGTLVTVSA
VL: QIVLTQSPAIMSASPGEKVTITCSAHSSVSFMHWFQQKPGTSPKLWIYSTSSLASGVPARFGGSGSGTSYSLTISRMEAEDAATYYCQQRSSFPLTFGAGTKLELKR
modifications: DM1 linked through the SPP disulfide linker, DM1/Ab ratio 4.36; positions not given
notes: also called DS6-DM1; immunoconjugate
Clonogenic Assay Conjugate IC50 (M), BT-20 cells [3]: > 3e-09 M
Clonogenic Assay Conjugate IC50 (M), BT-483 cells [3]: 1e-10 M
Clonogenic Assay Conjugate IC50 (M), Caov-3 cells [3]: 8e-10 M
Clonogenic Assay Conjugate IC50 (M), Caov-4 cells [3]: > 3e-09 M
Clonogenic Assay Conjugate IC50 (M), HPAC cells [3]: 1.8e-09 M
Clonogenic Assay Conjugate IC50 (M), HPAF-II cells [3]: > 3e-09 M
Clonogenic Assay Conjugate IC50 (M), HeLa cells [3]: 1.8e-09 M
Clonogenic Assay Conjugate IC50 (M), Hs766T cells [3]: > 3e-09 M
Clonogenic Assay Conjugate IC50 (M), KB cells [3]: 1.4e-09 M
Clonogenic Assay Conjugate IC50 (M), OVCAR5 cells [3]: > 3e-09 M
Clonogenic Assay Conjugate IC50 (M), T-47D cells [3]: > 3e-09 M
Clonogenic Assay Conjugate IC50 (M), TOV-21G cells [3]: 2e-09 M
Clonogenic Assay Conjugate IC50 (M), WISH cells [3]: 4.6e-10 M
MTT Assay Conjugate EC50 (M), BT-20 cells [3]: 1.44e-08 M
MTT Assay Conjugate EC50 (M), Caov-3 cells [3]: 1.61e-09 M
MTT Assay Conjugate EC50 (M), HPAC cells [3]: 1.84e-09 M
MTT Assay Conjugate EC50 (M), HPAF-II cells [3]: 1e-08 M
MTT Assay Conjugate EC50 (M), Hs766T cells [3]: > 3.2e-08 M
MTT Assay Conjugate EC50 (M), KB cells [3]: 3.01e-09 M
MTT Assay Conjugate EC50 (M), OVCAR5 cells [3]: 8.46e-07 M
MTT Assay Conjugate EC50 (M), TOV-21G cells [3]: 6.88e-09 M
MTT Assay Conjugate EC50 (M), WISH cells [3]: 6.69e-10 M
MTT Assay Conjugate EC50 (M), ZR-75-1 cells [3]: 9.45e-10 M
Kd [4]: 3.9 nM

B3: biotinylated murine DS6 (antibody, V domains shown)
VH: QAYLQQSGAELVRSGASVKMSCKASGYTFTSYNMHWVKQTPGQGLEWIGYIYPGNGATNYNQKFKGKATLTADPSSSTAYMQISSLTSEDSAVYFCARGDSVPFAYWGQGTLVTVSA
VL: QIVLTQSPAIMSASPGEKVTITCSAHSSVSFMHWFQQKPGTSPKLWIYSTSSLASGVPARFGGSGSGTSYSLTISRMEAEDAATYYCQQRSSFPLTFGAGTKLELKR
modifications: biotinylated; positions not given
notes: Murine DS6 IgG with biotin; also called biotin-muDS6; biotin-DS6
Kd [5]: 6.76 nM
Kd [6]: 2.8 nM

B4: DS6-SPP-MM1-202 taxoid conjugate (antibody, V domains shown)
VH: QAYLQQSGAELVRSGASVKMSCKASGYTFTSYNMHWVKQTPGQGLEWIGYIYPGNGATNYNQKFKGKATLTADPSSSTAYMQISSLTSEDSAVYFCARGDSVPFAYWGQGTLVTVSA
VL: QIVLTQSPAIMSASPGEKVTITCSAHSSVSFMHWFQQKPGTSPKLWIYSTSSLASGVPARFGGSGSGTSYSLTISRMEAEDAATYYCQQRSSFPLTFGAGTKLELKR
modifications: taxoid MM1-202 linked through the SSNPP linker, 2.86 drugs/antibody; positions not given
notes: also called taxane-conjugated DS6 antibody
Kd [7]: 1.24 nM

B5: chimeric DS6 (antibody, V domains shown)
VH: QAYLQQSGAELVRSGASVKMSCKASGYTFTSYNMHWVKQTPGQGLEWIGYIYPGNGATNYNQKFKGKATLTADPSSSTAYMQISSLTSEDSAVYFCARGDSVPFAYWGQGTLVTVSA
VL: QIVLTQSPAIMSASPGEKVTITCSAHSSVSFMHWFQQKPGTSPKLWIYSTSSLASGVPARFGGSGSGTSYSLTISRMEAEDAATYYCQQRSSFPLTFGAGTKLELKR
Kd [1]: 3.15 nM

B6: humanized DS6 antibody version 1.2 (antibody, human IgG1, V domains shown)
VH: QAQLQVSGAEVVKPGASVKMSCKASGYTFTSYNMHWVKQTPGQGLEWIGYIYPGNGATNYNQKFQGKATLTADPSSSTAYMQISSLTSEDSAVYFCARGDSVPFAYWGQGTLVTVSA
VL: EIVLTQSPATMSASPGERVTITCSAHSSVSFMHWFQQKPGTSPKLWIYSTSSLASGVPARFGGSGSGTSYSLTISSMEAEDAATYYCQQRSSFPLTFGAGTKLELKR
notes: The light chain is the same as in v1.0; also called huDS6 v1.2; v1.2
Kd [1]: 4.2 nM
EC50 [2]: 22.6 nM
